# Results from publication doi:10.1101/2025.10.29.685445 (2025).
# T1: HCoV-HKU1 RBD (residues 310-606 of isolate N5), Fc- and His-tagged (HCoV-HKU1 (isolate N5), UniProt Q0ZME7 310-606)
# T1 chain: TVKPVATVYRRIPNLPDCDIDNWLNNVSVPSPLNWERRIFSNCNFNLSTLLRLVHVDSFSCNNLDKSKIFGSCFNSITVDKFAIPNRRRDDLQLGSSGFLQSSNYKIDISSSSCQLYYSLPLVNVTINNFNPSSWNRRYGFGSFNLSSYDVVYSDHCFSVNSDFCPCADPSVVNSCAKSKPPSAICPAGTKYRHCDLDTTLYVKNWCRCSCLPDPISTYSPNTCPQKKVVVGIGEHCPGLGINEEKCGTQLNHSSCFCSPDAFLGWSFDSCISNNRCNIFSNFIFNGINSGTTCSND
# B1: HCoV-HKU1 RBD (residues 310-606 of isolate N5), as used in BLI (domain or fragment)
# chain: T1 chain
# B2: H501-008 Fab (Fab, V domains shown)
# VH: QVQLVQSGGGVVQPGRSLRLSCAVSGFTLDRYAMHWVRQAPGKALEWVALMSADGREQYYAESVKGRFTFSRDSSKNTLYLQMHNLRTDDSSVYFCAREGPMYYDAWSGRSYYNNYALDVWGRGTTVAVSS
# VL: QSVLTQPPSVSAAPGQTVTISCSGSSSNIGDNYVSWYQQVPGTAPRLLVYDNNRRPLGIPDRFSGSKSGTSATLAIAGLQTGDEADYYCGTWDSSLSAGVFGGGTKLTVV
# Columns and labels:
# H501-015 = assay: BLI
# H501-016 = assay: BLI
# H501-012 = assay: BLI
# H501-003 = assay: BLI
# H501-020 = assay: BLI
# H501-013 = assay: BLI
# H501-009 = assay: BLI
# [1] = target: T1, HCoV-HKU1 RBD (residues 310-606 of …); assay: SPR
# [2] = target: HCoV-OC43 S1-CTD (residues 318-608), Fc- and His-tagged (HCoV-OC43); assay: SPR
Binder,Kd (H501-015),koff (H501-015),Kd (H501-016),koff (H501-016),Kd (H501-012),koff (H501-012),Kd (H501-003),Kd (H501-020),koff (H501-020),Kd (H501-013),koff (H501-013),Kd (H501-009),koff (H501-009),koff [1],koff [2]
B1,0.568 nM,0.000117 s⁻¹,0.176 nM,3.26e-05 s⁻¹,1.87 nM,0.000326 s⁻¹,0.508 nM,< 0.001 nM,< 1e-07 s⁻¹,0.915 nM,0.000209 s⁻¹,5.44 nM,0.000383 s⁻¹,–,–
B2,–,–,–,–,–,–,–,–,–,–,–,–,–,0.000197 s⁻¹,0.042 s⁻¹
